Source: PMC6625990, “Structural underpinnings of Ric8A function as a G-protein α-subunit chaperone and guanine-nucleotide exchange factor” (Nature Communications, 2019)
Where two headings read alike, the source gives them in different places.

Assays:
[1] = DSF thermostability of Ric8A constructs and Ric8A1–492 mutants (protein alone); format: physicochemical, bovine
Protocol: Stabilities of Ric8A constructs with and without peptide ligands were assessed using differential scanning fluorimetry (DSF), in which an increase in fluorescence of the Sypro Orange dye is measured. Ric8A1–492, Ric8A1–452 and Ric8A1–426 in 20 mM Tris-HCl (pH 7.5) buffer containing 150 mM KCl, 5% glycerol, and 1 mM TCEP with and without peptide were used at a final concentration of 0.5 mg/ml and were supplemented with a 1000-fold dilution of Sypro Orange dye (Invitrogen). Temperature was increased at 1 °C/minute and fluorescence signals were recorded using real-time PCR (C1000 Touch thermal cycler, Bio Rad), with the cycler set to FRET mode and the excitation wavelength set at 450–490 nm and the emission wavelength at 560–580 nm.

Gαt333–350 = assay: BLI: Ric8A1–492 and its mutants binding to biotinylated Gαt333–350; settings: for binding to Gαt333–350 (in words): BLI; for Kd: BLI steady state
Protocol: (§1) An Octet RED96 system and streptavidin (SA)-coated biosensors (FortéBio, Menlo Park, CA) were used to measure association and dissociation kinetics for Gα peptides or the full-length Avi-tagged Gαt in relation to Ric8A1–492, Ric8A1–452, and Ric8A1–426. To obtain the Avi-tagged Gαt, Gαt was cloned into modified pET21a vector with the N-terminal His6-tag followed by the Avi tag and TEV cleavage site[59]. The Avi-tagged I340Q/N343H mutant of Gαt was prepared by QuikChange protocol. BL21(DE3) cells for expression of the Avi-tagged Gαt were grown in 2TY media supplemented with biotin (10 mg/liter), induced at OD600 of 0.6 with 50 µM IPTG and further grown overnight at 16 °C. Binding studies were performed in 20 mM Tris, 150 mM KCl, 5% glycerol, 1 mM TCEP, 0.5 mg/ml BSA, pH 8.0. All steps were performed at 26 °C, with biosensors stirred into 0.2 ml of sample in each well at 1000 rpm, and at a data acquisition rate of 5.0 Hz. N-terminally biotinylated Gαt333–350, Gαs363–380, C1 peptide and C2 peptide were loaded onto SA sensors at a concentration of 0.05, 0.05, 0.005, and 0.01 mg/ml for 40–90 seconds. Data for association and dissociation phases of the assay were collected as shown in Fig. 1b and Supplementary Figs. 8, 11, 12, and 14. To correct for baseline drift and non-specific binding, reference sensors lacking bound Gα peptide were used in the BLI assays with Ric8A proteins at the highest concentrations. Kinetic data fitting was performed using FortéBio Data Analysis software 10.0. For each concentration of Ric8A1–492, dissociation rate constant (kd) values were calculated from the corresponding dissociation phases of the curves. These kd values were used to calculate the association rate constant (ka) values from the association phases for each concentration according to the equation1 ka=kobserved-kd∕Ric8A1-492 The average ka and kd were calculated as means of the individual ka and kd values for all curves. Equilibrium dissociation constant KD was calculated as mean kd/mean ka. Steady-state data fitting was performed using the GraphPad Prism 7 software with the equation for one site specific binding.

Gαt = assay: BLI: Ric8A1–492 and its mutants binding to full-length Avi-tagged Gαt
Protocol: as §1

[2] = source data, experiment 1, read-out: KD (uM), Gαt333-350
[3] = source data, experiment 2, read-out: KD (uM), Gαt333-350
[4] = source data, experiment 3, read-out: KD (uM), Gαt333-350
[5] = source data, mean of replicates, read-out: Mean KD, Gαt333-350
[6] = BLI steady state, source data, experiment 1, read-out: KD (uM), Gαt
[7] = BLI steady state, source data, experiment 2, read-out: KD (uM), Gαt
[8] = BLI steady state, source data, experiment 3, read-out: KD (uM), Gαt
[9] = BLI steady state, source data, mean of replicates, read-out: mean KD, Gαt
[10] = DSF, protein alone, source data, mean of replicates
[11] = DSF, protein alone, source data, replicate 1
[12] = DSF, protein alone, source data, replicate 2
[13] = DSF, protein alone, source data, replicate 3
[14] = DSF, protein alone, source data, replicate 4

| Molecule | binding to Gαt333–350 (in words) (Gαt333–350) | Kd (Gαt333–350; [2]) | Kd (Gαt333–350; [3]) | Kd (Gαt333–350; [4]) | Kd (Gαt333–350; [5]) | binding to Gαt (in words) (Gαt; BLI) | Kd (Gαt; [6]) | Kd (Gαt; [7]) | Kd (Gαt; [8]) | Kd (Gαt; [9]) | mean Tm [1, 10] | Tm (C ) [1, 11] | Tm (C ) [1, 12] | Tm (C ) [1, 13] | Tm (C ) [1, 14] | further results |
| --- | --- | --- | --- | --- | --- | --- | --- | --- | --- | --- | --- | --- | --- | --- | --- | --- |
| Ric8A1–426: bovine Ric8A construct lacking the C-terminal region, residues 1–426 (protein, left off: His6, N-terminal, state not stated) MEPRAVADALETGEEDVVMEALRAYNRENSQSFTFDDAQQEDRKRLAKLLVSVLEQGLPPSRRVIWLQSIRILSRDRSCLDSFTSRRSLQALACYAGISASQGSVPEPLNMDVVLESLKCLCNLVLSSPVAQALAAEAGLVVRLAERVGLCRQSSFPHDVQFFDLRLLFLLTALRTDVRQQLFQELQGVRLLTRALELTLGMTEGERHPELLPPQETERAMEILKVLFNITFDSIKREVDEEDAALYRHLGTLLRHCVMLAAAGDRTEELHGHAVNLLGNLPVKCLDVLLTLEPHEGSLEFLGVNMDVIRVLLSFMEKRLHQTHRLKESVAPVLSVLTECARMHRPARKFLKAQVLPPLRDVRTRPEVGELLRNKLVRLMTHLDTDVKRVAAEFLFVLCSESVPRFIKYTGYGNAAGLLAARGLMA |  |  |  |  |  |  |  |  |  |  |  |  |  |  |  | Tm ([1]; DSF, Sypro Orange, protein alone 0.5 mg/ml, 20 mM Tris-HCl pH 7.5, 150 mM KCl, 5% glycerol, 1 mM TCEP, 1 °C/minute, mean ± SD (n = 3)): 36.5 ± 1.1 °C; mean Tm ([1]; Suppl Fig 14B DSF, mean of 3 experiments, SD 1.1): 36.5 C |
| A173W: A173 mutant of Ric8A1–492, printed A173W in figures and source data, A173F in text (protein, left off: His6, N-terminal, state not stated) MEPRAVADALETGEEDVVMEALRAYNRENSQSFTFDDAQQEDRKRLAKLLVSVLEQGLPPSRRVIWLQSIRILSRDRSCLDSFTSRRSLQALACYAGISASQGSVPEPLNMDVVLESLKCLCNLVLSSPVAQALAAEAGLVVRLAERVGLCRQSSFPHDVQFFDLRLLFLLTFLRTDVRQQLFQELQGVRLLTRALELTLGMTEGERHPELLPPQETERAMEILKVLFNITFDSIKREVDEEDAALYRHLGTLLRHCVMLAAAGDRTEELHGHAVNLLGNLPVKCLDVLLTLEPHEGSLEFLGVNMDVIRVLLSFMEKRLHQTHRLKESVAPVLSVLTECARMHRPARKFLKAQVLPPLRDVRTRPEVGELLRNKLVRLMTHLDTDVKRVAAEFLFVLCSESVPRFIKYTGYGNAAGLLAARGLMAGGRPEGQYSEDEDTDTDEYKEAKASINPVTGRVEEKPPNPMEGMTEEQKEHEAMKLVNMFDKLSRH | severely impaired the interaction | 23.8 µM | 26.9 µM | 26.8 µM | > 10 µM | severely reduced affinity | 11.2 µM | 11.5 µM | 15.1 µM | > 10 µM | 45.6 C | 45.57 C | 45.54 C | 45.74 C | 45.49 C | Kd (Gαt333–350; mean ± SD, n = 3, ND – not detectable, read-out: KD (μM) Gαt333–350): > 10 µM; Kd (Gαt; BLI steady state, mean ± SD, n = 3, ND – not detectable, read-out: KD (μM) Gαt): > 10 µM; Kd (Gαt; BLI, representative curve (Fig. 3g), read-out: KD, steady-state binding curve, Gαt): > 10 µM |

Now from value to molecule, other results behind:

| binding to Gαt333–350 (in words) (Gαt333–350) | Kd (Gαt333–350; [2]) | Kd (Gαt333–350; [3]) | Kd (Gαt333–350; [4]) | Kd (Gαt333–350; [5]) | binding to Gαt (in words) (Gαt; BLI) | Kd (Gαt; [6]) | Kd (Gαt; [7]) | Kd (Gαt; [8]) | Kd (Gαt; [9]) | Molecule | mean Tm [1, 10] | Tm (C ) [1, 11] | Tm (C ) [1, 12] | Tm (C ) [1, 13] | Tm (C ) [1, 14] | further results |
| --- | --- | --- | --- | --- | --- | --- | --- | --- | --- | --- | --- | --- | --- | --- | --- | --- |
| severely impaired the interaction | 2.04 µM | 1.89 µM | 1.45 µM | 1.8 µM | severely reduced affinity | 2.04 µM | 1.84 µM | 1.66 µM | 1.8 µM | F169R: F169R mutant of Ric8A1–492 (protein, left off: His6, N-terminal, state not stated) MEPRAVADALETGEEDVVMEALRAYNRENSQSFTFDDAQQEDRKRLAKLLVSVLEQGLPPSRRVIWLQSIRILSRDRSCLDSFTSRRSLQALACYAGISASQGSVPEPLNMDVVLESLKCLCNLVLSSPVAQALAAEAGLVVRLAERVGLCRQSSFPHDVQFFDLRLLRLLTALRTDVRQQLFQELQGVRLLTRALELTLGMTEGERHPELLPPQETERAMEILKVLFNITFDSIKREVDEEDAALYRHLGTLLRHCVMLAAAGDRTEELHGHAVNLLGNLPVKCLDVLLTLEPHEGSLEFLGVNMDVIRVLLSFMEKRLHQTHRLKESVAPVLSVLTECARMHRPARKFLKAQVLPPLRDVRTRPEVGELLRNKLVRLMTHLDTDVKRVAAEFLFVLCSESVPRFIKYTGYGNAAGLLAARGLMAGGRPEGQYSEDEDTDTDEYKEAKASINPVTGRVEEKPPNPMEGMTEEQKEHEAMKLVNMFDKLSRH | 45.6 C | 45.84 C | 45.62 C | 45.65 C | 45.38 C | Kd (Gαt333–350; source data, experiment 4, read-out: KD (uM), Gαt333-350): 1.89 µM |
| ablated the binding |  |  |  |  | no Gαt binding was detected |  |  |  |  | N123E: N123E mutant of Ric8A1–492 (protein, UniProt Q5E9J8 1-492, looked up, variant N123E, residues 1-492) MEPRAVADALETGEEDVVMEALRAYNRENSQSFTFDDAQQEDRKRLAKLLVSVLEQGLPPSRRVIWLQSIRILSRDRSCLDSFTSRRSLQALACYAGISASQGSVPEPLNMDVVLESLKCLCELVLSSPVAQALAAEAGLVVRLAERVGLCRQSSFPHDVQFFDLRLLFLLTALRTDVRQQLFQELQGVRLLTRALELTLGMTEGERHPELLPPQETERAMEILKVLFNITFDSIKREVDEEDAALYRHLGTLLRHCVMLAAAGDRTEELHGHAVNLLGNLPVKCLDVLLTLEPHEGSLEFLGVNMDVIRVLLSFMEKRLHQTHRLKESVAPVLSVLTECARMHRPARKFLKAQVLPPLRDVRTRPEVGELLRNKLVRLMTHLDTDVKRVAAEFLFVLCSESVPRFIKYTGYGNAAGLLAARGLMAGGRPEGQYSEDEDTDTDEYKEAKASINPVTGRVEEKPPNPMEGMTEEQKEHEAMKLVNMFDKLSRH | 46.7 C | 46.78 C | 46.59 C | 46.65 C | 46.83 C |  |
